Laboratory results as given in the supplement of paper PMC10567573.
± gives the standard deviation.

Experiment: protein stability index of a GFP-peptide fusion (GPS, HEK-293T) (PSI 1-6); higher = more stable
Conditions: c terminus: a fixed tail appended
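Further: 24-mer peptide tiles fused after GFP, lentivirally expressed, FACS-sorted into six equal bins by GFP/DsRed ratio, decoded by Illumina sequencing, PSI is the read-weighted mean bin number.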

For FLVDMFNDEIEEVRLQSIHTMRKI [INTS4], the protein stability index (treatment: DMSO) was 2.33 ± 0.13 and the protein stability index (treatment: MLN4924 1 uM, 8 h) was 2.54 ± 0.34.

In the case of PDTQLLKFQLNKYTGEIKISENLD [PCDHGA10], the protein stability index (treatment: DMSO) is reported as 3.43 ± 0.44 and the protein stability index (treatment: MLN4924 1 uM, 8 h) is reported as 3.66 ± 0.17.

PGFDSSVYSDLCEAAEAVRPEERK [ADAMTSL2] gave a protein stability index (treatment: DMSO) of 5.42 ± 0.19 and a protein stability index (treatment: MLN4924 1 uM, 8 h) of 5.83 ± 0.18.

For STFASLIGPFGGFFASGFKRAFKI [CDS2], the protein stability index (treatment: DMSO) was 2.21 ± 0.44 and the protein stability index (treatment: MLN4924 1 uM, 8 h) was 2.37 ± 0.38.

For YPCLEKPRIWSLAHTATASAVEGA [IRX6], the protein stability index (treatment: DMSO) was 2.8 ± 0.41 and the protein stability index (treatment: MLN4924 1 uM, 8 h) was 2.98 ± 0.49.

Work on MERPLCSHLCSCLAMLALLSPLSL [LOXL2] yielded a protein stability index (treatment: DMSO) of 3.16 ± 0.19 and a protein stability index (treatment: MLN4924 1 uM, 8 h) of 3.46 ± 0.36.
